From the RNAGym collection of RNA variant scans (doi:10.1073/pnas.2313332121)
Fewer inactive variants are shown than the library holds.

B1: TPR 5TU (parent)
chain: GGAUCUUCUCGAUCUAACAAAAAAGACAAAUCUGCCACAAAGCUUGAGAGCAUCUUCGGAUGCAGAGGCGGCAGCCUUCGGUGGCGCGAUAGCGCCAACGUUCUCAACUAUGACACGCAAAACGCGUGCUCCGUUGAAUGGAGUUUAUCAUG

Variants of: B1
Test: polymerase ribozyme fitness, log enrichment relative to wild type (log ratio); higher = more active; in vitro selection for triplet polymerase activity
Method in brief: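 A single round of triplicate in vitro selection, including frozen incubation at −7 °C, was applied to PCR-built, transcribed mutant libraries of each subunit of a heterodimeric triplet polymerase ribozyme. Illumina sequencing of input and output libraries retained genotypes with ≥10 input reads and ≥1 read per output. Fitness is the base-2 logarithm of genotype enrichment divided by wild-type enrichment, from inverse-variance-weighted replicate averages.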

Variant | polymerase ribozyme fitness (log ratio)
C27A G58U C95U C96A G124U | -4.08
A19C A41C U148C | -1.99
G94A G141A A150U | ≤ -4.2
G42C U55A A66G U144A | ≤ -4.2
G11C A29G A40U C76U C87U | ≤ -4.2
C85U U145G | -2
C85U C99G G126A U135G | ≤ -4.2
A12G G83A G126U U134C U148G | ≤ -4.2
A52G U78C A89U | -1.24
G48C C63U C69U G74A C93A U102G A107G | ≤ -4.2
U6A U7G U31C G34A A41U | -3.68
A12U C87U A119U | -1.23
G86A A110G U145A C149G | ≤ -4.2
U9A A20U A28U C79A C87U U139A | ≤ -4.2
U7G A40U C43G A91U | ≤ -4.2
U4C C35G C96U | ≤ -4.2
A26U A37C A47G C85U U90A U145A U146C | ≤ -4.2
A19C C54A C96U A122G G133C | -2.39
G48U C96G | -1.13
C93U C103U A107C C125A | ≤ -4.2
G11A C125U U139G | -2.67
C114U C123U | -2.17
C54A C57G U90G U139A G140U U146A | ≤ -4.2
U6G A41C A49G C95G | -2.03

Variant | polymerase ribozyme fitness (log ratio)
G83C C116U A120C U135G | -3.87
C14G A22C A52U C96A A97U G117U | ≤ -4.2
A39G C75U C85U A137G | -3.67
C8A C27A C57G G92A | ≤ -4.2
G46C G68A U101G G117U | ≤ -4.2
A40U G68C C96U C105A | ≤ -4.2
U4C C96G | 0.0289
G59A C99U A115G | -1.83
U13C C51A G83C A89G C125U | ≤ -4.2
C54A | -1.06
U127G U144G | -1.7
G50U U78C U139G | -3.06
C5G C38U A39C C95A G100C | ≤ -4.2
A17U A52C A64C G133A A138C | ≤ -4.2
A119U | -0.546
C54A A150G | -3.37
A40C G84A A97U | -2.32
C27G A37C U44A U45A C57U G68A G83A A119U A120U A147G | ≤ -4.2
A39G G84A C116U | -1.91
A24C A73U C79U G88U G126A | ≤ -4.2
G25C A119C | -2.68
C32G A49C A142U | ≤ -4.2
U6G C85A C87G A98U A106C U148A | ≤ -4.2
C5A G62C G67C G94A A106U | ≤ -4.2

Variant | polymerase ribozyme fitness (log ratio)
A24C G84A | ≤ -4.2
C8G C27G C36G A39C C85A | ≤ -4.2
A41U G84A C96U A107C A147C | ≤ -4.2
G58U G86C | -1.98
A40C A52U U55A C93U | -3.92
U77G C93A G143A U146C | ≤ -4.2
C69U G136A A142U | -0.531
U4A C35G G46A C75G G94C C105G | ≤ -4.2
A66G G81U C87G C99U U104G U134A A142U | ≤ -4.2
A21G C38U A60G C85U | 1
C85G G143U | -3.79
C8A A17G U78G G94A G133A U134A | ≤ -4.2
A40G C116G A120U | -1.72
U55A U61A A97C C103A C125A | ≤ -4.2
G34A A106U A142U | ≤ -4.2
C51A C75U | -2.27
A49C G62C U139C | ≤ -4.2
A49G C95U | -0.995
A49C C72A C108A U135G | ≤ -4.2
U101G G117A G133U | -4.1
C96U A137U | -3.84
A28G C116U | -3.63
C72A U78G C85U A97U G140C | ≤ -4.2
C93U C123G A138C | ≤ -4.2

Variant | polymerase ribozyme fitness (log ratio)
C38G A60G C76G G81A G84U U102G C116U G128A | ≤ -4.2
A3G A91U | ≤ -4.2
C76G A98G A113U U151G | ≤ -4.2
A20U C54A | -2.02
A64G G68C A142G G143A | ≤ -4.2
U15C C36A A60U C85G C116U | ≤ -4.2
A17G G84C | -1.85
A17C A21U G25U G84A | -2.95
U33C C36A U55A G83A A89G A142U U148C | ≤ -4.2
C99U A150C | ≤ -4.2
A24G G86U | -3.77
C14G A17G C27U C96G A122G G141C | ≤ -4.2
A21C G88U A142U | ≤ -4.2
C5G A120C | -0.488
G11U G46A C85U | -2.44
G126U C132U | -0.717
A17G C43A C54U C93G | ≤ -4.2
A21G A22G A37C G62C G94C C103A A106C U130A | ≤ -4.2
A41C C116G | -0.175
A12C C14A A29G G81A A91G C93U C103A | ≤ -4.2
C14G A23U A28C A40G G42C A89U C116G G124C U134G | ≤ -4.2
C38U C87U | -1.19
C36G G65A G83A A98C | ≤ -4.2
C8A A12G C85U C103G G124U C129A | ≤ -4.2

Variant | polymerase ribozyme fitness (log ratio)
C85U U127A | -3.36
U9A A41G A91U C95A C96G U102G G133A U135C | ≤ -4.2
A91U A97G | -3.67
A37C A60C G67C C76G | -3.82
C87A A106U | -4.18
U9A U13G C32G C51G G70U U127G | ≤ -4.2
A3U U82G U104G | -1.04
C85A A150G | -2.41
C69U A106C | -2.21
U7G C95U | -2.93
G11C G25C A28G C36G C75U C96U A115U A122U | -3.98
C36U C72U | -0.573
C87U A115U | -1.73
C76G G80C C105U | ≤ -4.2
U44A A49G | ≤ -4.2
U101A U109G C118U C125G A138G G141A | ≤ -4.2
C35A U56C U82A | -3.49
G81A C85A C149U | -0.877
C57G G84U A89C G112C U139C C149A | ≤ -4.2
U135G G141U U146G | ≤ -4.2
U45A G88C A113C U134A | ≤ -4.2
C35U A73U C75G C76G U90C | ≤ -4.2
C5G C14G A41C G48C G126A G140A | ≤ -4.2
G50C C85U | -2.99

Variant | polymerase ribozyme fitness (log ratio)
A26G C36A | ≤ -4.2
C54G U55A A89U C118G A142C | -3.87
A16C A17C A20U A30U A37C U55G C93G C103A A119G | ≤ -4.2
G58A C76A G80C C85U A89G U90C U101G C149A | ≤ -4.2
A17G G48A | -1.03
U9A A73G | ≤ -4.2
C14U C93A | -3.4
C57A A60G G74U | -4.12
G71C A91U G136C | ≤ -4.2
C54G U55A G70U G81C C87U G94C C96A C105A A120C | ≤ -4.2
U6G A12U A28C A40C G94C | ≤ -4.2
U33A C75A A110U | ≤ -4.2
U53A U56A | -2.45
U53A C125U | -1.28
A52G U53C G58A A142C | -3.35
C87A G141A | -3.89
A16U A30C U61A C96U G140U | ≤ -4.2
G58A G94A | -0.945
C32G C93U A119U A147U | ≤ -4.2
G65A C85U A97U | -2.46
A115C C123A | -1.17
C76U G84U | -0.883
C8A C10U U33A G81U C87A C103G A147C | ≤ -4.2
A17C A20C U53G G84A | -2.28

Variant | polymerase ribozyme fitness (log ratio)
A20C A24C C51A G74C G94U A121U U135G U148C | ≤ -4.2
A47U U56A G94A C118U A121U | -0.95
G48U A98G | -0.0311
C72U C96A C105U C132U | -1.29
A20C C79A G94C | ≤ -4.2
C96G A97G | -2.61
C32U U61C | -3.52
A47C A60G C85A | -2.83
A60C C79U U102A C103A A142G | ≤ -4.2
U31C C99G C103U | -0.958
G94A U148C | -2.75
A20U U53A U55A C118G | -3.98
A22U C54U G92U A147U | 0.944
U31G C95A | 0.165
C87A G100U | ≤ -4.2
A16C A26U G42U A47C U55A U90G A98G | ≤ -4.2
C8G A30G C35U G65U G94U U135C U144G | ≤ -4.2
C85A G117C | -1.3
A19U A40U C54A A60G C96U | -2.61
A28U C35G C54A C79A G80C A89C G94A | ≤ -4.2
U77C G136U C149G | -4.11
G50C G92A C116U U151C | ≤ -4.2
U9G U31G G42U U53A G58C | ≤ -4.2
